Experimental data: patent US20200339648A1 (University of Washington, published 2020)

Key:
[1] = target: T1, human IL-2 receptor β subunit (hIL-2Rβ) (human, UniProt P14784 27-240, biotin on the C-terminal biotin acceptor peptide); test: SPR, equilibrium titration; biotinylated IL-2Rβ on streptavidin chip
T1 construct: Biotinylated and immobilised on streptavidin; also called HsIL-2Rβ; human IL-2Rβ
T1 sequence: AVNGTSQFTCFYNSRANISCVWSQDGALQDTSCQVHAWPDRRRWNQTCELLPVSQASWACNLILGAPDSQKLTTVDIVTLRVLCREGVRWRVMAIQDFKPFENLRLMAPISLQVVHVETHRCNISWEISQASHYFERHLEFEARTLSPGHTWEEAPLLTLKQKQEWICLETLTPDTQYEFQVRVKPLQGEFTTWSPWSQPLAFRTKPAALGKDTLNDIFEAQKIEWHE

[2] = target: T2, mouse IL-2 receptor β subunit (mIL-2Rβ) (mouse, UniProt P16297 27-240, biotin on the C-terminal biotin acceptor peptide); test: as above
T2 construct: extracellular domain; Biotinylated form for SPR; also called MmIL-2Rβ; murine IL-2Rβ
T2 sequence: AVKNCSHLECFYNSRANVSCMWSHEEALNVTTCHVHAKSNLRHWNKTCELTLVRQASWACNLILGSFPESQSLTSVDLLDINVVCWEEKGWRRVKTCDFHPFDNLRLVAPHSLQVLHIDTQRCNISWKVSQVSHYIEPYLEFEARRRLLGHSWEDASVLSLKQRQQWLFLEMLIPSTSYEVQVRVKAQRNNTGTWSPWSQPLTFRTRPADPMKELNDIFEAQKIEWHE

[3] = target: T3, human IL-2 receptor βγc heterodimer (hIL-2Rβγc), soluble (human, UniProt P14784 27-240; P31785 23-254, biotin on the C-terminal biotin acceptor peptide); test: SPR, equilibrium titration; IL-2Rγ on streptavidin chip, saturating IL-2Rβ in solution
T3 construct: also called HsIL-2Rβγc; hIL-2Rβνc
T3 sequence 1: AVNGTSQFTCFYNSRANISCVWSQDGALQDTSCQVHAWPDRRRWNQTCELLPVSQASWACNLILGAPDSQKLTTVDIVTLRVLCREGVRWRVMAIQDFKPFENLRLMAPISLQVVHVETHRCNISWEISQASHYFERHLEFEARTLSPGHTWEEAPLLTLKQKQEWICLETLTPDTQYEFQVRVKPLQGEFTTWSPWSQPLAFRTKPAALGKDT
T3 sequence 2: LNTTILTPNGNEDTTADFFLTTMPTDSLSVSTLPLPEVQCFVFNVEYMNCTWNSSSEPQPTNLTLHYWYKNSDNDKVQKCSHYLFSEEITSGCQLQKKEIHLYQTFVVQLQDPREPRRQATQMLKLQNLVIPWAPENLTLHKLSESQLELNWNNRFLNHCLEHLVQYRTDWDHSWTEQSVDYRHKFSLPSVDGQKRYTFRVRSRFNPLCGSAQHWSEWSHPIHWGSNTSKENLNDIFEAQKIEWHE

[4] = target: T4, mouse IL-2 receptor βγc heterodimer (mIL-2Rβγc), soluble (mouse, UniProt P16297 27-240; P34902 23-263, biotin on the C-terminal biotin acceptor peptide); test: as above
T4 construct: extracellular domain; also called MmIL-2Rβγc; mIL-2Rβνc
T4 sequence 1: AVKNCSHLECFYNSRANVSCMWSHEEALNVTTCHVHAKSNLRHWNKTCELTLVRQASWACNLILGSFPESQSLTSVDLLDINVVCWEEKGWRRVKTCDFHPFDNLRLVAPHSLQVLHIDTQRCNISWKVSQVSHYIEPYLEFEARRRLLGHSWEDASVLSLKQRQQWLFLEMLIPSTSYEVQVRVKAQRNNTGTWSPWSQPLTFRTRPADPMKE
T4 sequence 2: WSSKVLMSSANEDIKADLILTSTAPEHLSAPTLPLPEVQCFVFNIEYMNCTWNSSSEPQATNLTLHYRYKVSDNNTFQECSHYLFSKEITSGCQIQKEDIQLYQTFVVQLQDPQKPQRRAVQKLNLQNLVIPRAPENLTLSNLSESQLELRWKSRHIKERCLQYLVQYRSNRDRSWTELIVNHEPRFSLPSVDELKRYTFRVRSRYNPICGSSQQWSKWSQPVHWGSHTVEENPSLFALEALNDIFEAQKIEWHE

B1: G2_neo2_40_1F_dsn36 (designed binder)
chain: PKKKIQLLAEHALLDALMILNIVKTNSQNAEEKLEDYASNVEVILEEIARLMESGDQKDEAEKAKRMKEWMKRIKTTASEDEQEEMANRIITLLQSWIFS
notes: E. coli, N-terminal 6xHis tag and thrombin site
Kd [1]: 27.6 nM | Kd [2]: 2430 nM | Kd [3]: 114 nM | Kd [4]: 568 nM

B2: mouse interleukin-2 (mIL-2) (ligand, UniProt P04351 21-169, looked up)
chain: APTSSSTSSSTAEAQQQQQQQQQQQQHLEQLLMDLQELLSRMENYRNLKLPRMLTFKFYLPKQATELKDLQCLEDELGPLRHVLDLTQSKSFQLEDAENFISNIRVTVVKLKGSDNTFECQFDDESATVVDFLRRWIAFCQSIISTSPQ
notes: range 1-149; Baculovirus expression for SPR; also called MmIL-2; mouse IL-2
Kd [1]: 4950 nM | Kd [2]: 1500 nM | Kd [3]: 8030 nM | Kd [4]: 126 nM

B3: G1_neo2_40_1F (designed binder)
chain: STKKTQLLAEHALLDALMMLNLLPEPNEKLNRIITTMQSWIFTGKIDGDGAQELAKEVEELEQEHEKRGIDVEDYASNLKVILLELA
notes: also called G1_ne02_40_1F
Kd [1]: 2.6 nM | Kd [2]: 486 nM | Kd [3]: 2.3 nM | Kd [4]: 7.9 nM
